We go through twelve molecules from patent US10428140B2, “Anti-EphA4 antibody” (EISAI R&D MANAGEMENT CO., LTD., priority 2015, dated 2019).

In general, Kd refers to a measure of binding affinity in units of concentration. Broadly, the IC50 is the concentration that gives 50% inhibition. The low end stands for greater potency in that assay, the high end for weaker potency in that assay.

Residue numbers refer to the chain shown, from its start. “And” between values parts separate entries of the source, which are not always exact repeats. Identical values can stand only once.

To fix the notation:
B1: 73 (antibody, V domains shown)
VH: QIQLVQSGSELKKPGASVKVSCKASGYTFTDYSMHWVRQAPGQGLKWMGWINTETGEPTYADDFKGRFVFSLDTSVSTAYLQISSLKAEDTAVYYCARIPLYYYGSRYWYFDVWGQGTTVTVSS
VL: EIVMTQSPATLSVSPGERATLSCRASENIYRNLAWYQQKPGQSPRLLIYAATNLADGIPARFSGSGSGTEYTLTISSLQSEDFAVYYCQHFWGTPWTFGQGTKVEIK
modifications: synthetic humanized antibody heavy chain variable region sequence; synthetic humanized antibody light chain variable region sequence
B2: 141 (antibody, V domains shown)
VH: B1 VH with I2V, K46E
VL: DIQMTQSPSSLSASVGDRVTITCRASENIYRNLAWYQQKPGKAPKLLVYAATNLADGVPSRFSGSGSGTDYTLTISSLQPEDFATYYCQHFWGTPWTFGQGTKVEIK
modifications: synthetic humanized antibody heavy chain variable region sequence; synthetic humanized antibody light chain variable region sequence
B3: 151 (antibody, V domains shown)
VH: B1 VH with D62Q, D63G, K65T
VL: B2 VL with V48L, P80S
modifications: synthetic humanized antibody heavy chain variable region sequence; synthetic humanized antibody light chain variable region sequence
B4: 143 (antibody, V domains shown)
VH: B1 VH
VL: B2 VL
modifications: synthetic humanized antibody heavy chain variable region sequence; synthetic humanized antibody light chain variable region sequence
B5: 138 (antibody, V domains shown)
VH: B1 VH with D62Q, D63G, K65T
VL: B2 VL
modifications: synthetic humanized antibody heavy chain variable region sequence; synthetic humanized antibody light chain variable region sequence
B6: 145 (antibody, V domains shown)
VH: B1 VH with I2V
VL: B2 VL with V48L, P80S
modifications: synthetic humanized antibody heavy chain variable region sequence; synthetic humanized antibody light chain variable region sequence
B7: 139 (antibody)
VH: B1 VH with I2V, K46E, D62Q, D63G, K65T
VL: B2 VL
chain: ASTKGPSVFPLAPSSRSTSESTAALGCLVKDYFPEPVTVSWNSGALTSGVHTFPAVLQSSGLYSLSSVVTVPSSNFGTQTYTCNVDHKPSNTKVDKTVERKSCVECPPCPAPPAAAPSVFLFPPKPKDTLMISRTPEVTCVVVDVSHEDPEVQFNWYVDGVEVHNAKTKPREEQFNSTFRVVSVLTVVHQDWLNGKEYKCKVSNKGLPAPIEKTISKTKGQPREPQVYTLPPSREEMTKNQVSLTCLVKGFYPSDIAVEWESNGQPENNYKTTPPMLDSDGSFFLYSKLTVDKSRWQQGNVFSCSVMHEALHNHYTQKSLSLSPG
modifications: synthetic humanized antibody heavy chain variable region sequence; synthetic humanized antibody light chain variable region sequence; synthetic antibody constant region sequence
B8: 140 (antibody, V domains shown)
VH: B1 VH with I2V, D62Q, D63G, K65T
VL: B2 VL
modifications: synthetic humanized antibody heavy chain variable region sequence; synthetic humanized antibody light chain variable region sequence
B9: 154 (antibody, V domains shown)
VH: B1 VH with I2V, K46E
VL: B2 VL with V48L, P80S
modifications: synthetic humanized antibody heavy chain variable region sequence; synthetic humanized antibody light chain variable region sequence
B10: 152 (antibody, V domains shown)
VH: B1 VH with I2V, K46E, D62Q, D63G, K65T
VL: B2 VL with V48L, P80S
modifications: synthetic humanized antibody heavy chain variable region sequence; synthetic humanized antibody light chain variable region sequence
B11: 142 (antibody, V domains shown)
VH: B1 VH with I2V
VL: B2 VL
modifications: synthetic humanized antibody heavy chain variable region sequence; synthetic humanized antibody light chain variable region sequence
B12: 153 (antibody, V domains shown)
VH: B1 VH with I2V, D62Q, D63G, K65T
VL: B2 VL with V48L, P80S
modifications: synthetic humanized antibody heavy chain variable region sequence; synthetic humanized antibody light chain variable region sequence

In the first assay the target is T1, human EphA4 (Homo sapiens, UniProt P54764).
T1 construct: made in house; not restated for the human SEAP-His protein
T1 sequence (P54764 20-547): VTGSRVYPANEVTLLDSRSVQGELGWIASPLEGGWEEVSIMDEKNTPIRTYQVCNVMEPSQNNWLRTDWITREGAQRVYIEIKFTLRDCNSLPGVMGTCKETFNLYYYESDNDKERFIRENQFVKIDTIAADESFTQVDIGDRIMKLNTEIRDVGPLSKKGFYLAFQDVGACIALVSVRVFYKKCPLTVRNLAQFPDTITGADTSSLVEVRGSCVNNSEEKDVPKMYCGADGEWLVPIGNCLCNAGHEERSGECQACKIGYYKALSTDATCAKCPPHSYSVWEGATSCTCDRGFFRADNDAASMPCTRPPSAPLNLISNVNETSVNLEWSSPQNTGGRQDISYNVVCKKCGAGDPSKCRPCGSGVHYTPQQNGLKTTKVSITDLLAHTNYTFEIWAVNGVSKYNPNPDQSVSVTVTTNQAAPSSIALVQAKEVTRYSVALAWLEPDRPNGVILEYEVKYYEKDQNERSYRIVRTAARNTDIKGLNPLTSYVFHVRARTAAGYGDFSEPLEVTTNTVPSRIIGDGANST
Description: Affinity of humanized antibodies by SPR (Biacore T200). In kind it is binding. Conditions: human EphA4 extracellular region-SEAP-His; 1:1 binding model. As to the method: The binding affinity of each anti-EphA4 monoclonal humanized antibody obtained in Example 16 for human EphA4 was determined by surface plasmon resonance (SPR) using Biacore T200 (GE Healthcare). First, for the assay of antibody A, a rat anti-mouse IgG1 antibody produced with a conventional method by immunizing rat with mouse IgG1 antibody was immobilized on sensor chip CM5. The immobilization of the rat anti-mouse IgG1 antibody on sensor chip CM5 was performed by the amine coupling method using N-hydroxysuccinimide (NHS) and N-ethyl-N′-(3-dimethylaminopropyl)carbodiimide hydrochloride (EDC). Ethanolamine was used in blocking (the sensor chip and the reagents for immobilization were all manufactured by GE Healthcare). The antibody was diluted with a buffer solution for immobilization (10 mM sodium acetate, pH 4.5) and immobilized on the sensor chip according to the protocol attached to Biacore T200. For the assay of each humanized monoclonal antibody, a protein A chip (GE Healthcare, 29-1383-03) was used. Antibody A or the humanized monoclonal antibody was diluted with a running buffer solution HBS-EP (GE Healthcare), injected onto only flow cell 2 for 120 seconds, and captured (captured amount: approximately 30 to 60 RU). Subsequently, human EphA4 extracellular region-SEAP-His protein serially diluted in the range of 50, 16.7, 5.6, 1.9, and 0.6 nM using HBS-EP was sequentially added from the lower toward higher concentration sides without regeneration operation. Binding reaction curves were sequentially observed at the time of the addition (association phase, for 120 sec) and after the completion of the addition (dissociation phase, for 900 sec). After the completion of each observation, the sensor chip was regenerated by the addition of 3 M MgCl2 (for 60 sec) or 10 mM Glycine-HCl pH 1.5 (for 30 sec). The obtained binding reaction curves were subjected to fitting analysis with 1:1 binding models using software BIA evaluation attached to the system to calculate the affinity (KD=kd/ka) for human EphA4 (Table 6).
In the case of B1, the ka stood at 290000 M⁻¹ s⁻¹ and the kd was 0.00027 s⁻¹.

B2 gave a ka of 390000 M⁻¹ s⁻¹ and a kd of 0.00062 s⁻¹.

In the case of B3, the ka is 320000 M⁻¹ s⁻¹ and the kd turned out to be 0.00053 s⁻¹.

For the molecule B4, the ka was found to be 350000 M⁻¹ s⁻¹ and the kd came out at 0.00051 s⁻¹.

As to B5, the ka was 330000 M⁻¹ s⁻¹ and 290000 M⁻¹ s⁻¹; the kd was 0.00043 s⁻¹ and 0.00039 s⁻¹.

B6 yielded a ka of 330000 M⁻¹ s⁻¹ and a kd of 0.00065 s⁻¹.

For the molecule B7, the ka was 370000 M⁻¹ s⁻¹ and the kd came to 0.00053 s⁻¹.

The molecule B8 returned a ka of 320000 M⁻¹ s⁻¹ and a kd of 0.00043 s⁻¹.

Regarding B9, the ka was 390000 M⁻¹ s⁻¹ and the kd is 0.00065 s⁻¹.

B10 returned a ka of 400000 M⁻¹ s⁻¹ and a kd of 0.00082 s⁻¹.

On to B11, for which the ka came to 340000 M⁻¹ s⁻¹ and the kd turned out to be 0.0005 s⁻¹.

Regarding B12, the ka was determined as 290000 M⁻¹ s⁻¹ and the kd came to 0.0006 s⁻¹.

The assay is the same for the next values; noted with them: human EphA4 extracellular region-SEAP-His; KD=kd/ka.
On to B1, for which the affinity, expressed as Kd, was 0.93 nM. This lies in the sub-nanomolar range.

Molecule B2 showed a Kd of 1.6 nM.

Regarding B3, the affinity, expressed as Kd, was 1.7 nM. This Kd and that of the molecule before are within 1.5-fold of each other.

With B4, the Kd stood at 1.5 nM. This Kd and that of the molecule before are within 1.5-fold of each other.

As to B5, the equilibrium dissociation constant (Kd) is 1.3 nM and 1.4 nM.

Molecule B6 had a Kd of 2 nM.

Molecule B7 registered a Kd of 1.4 nM. The Kd values of the last two molecules are within 1.5-fold of each other.

In turn, B8 had a Kd of 1.4 nM. This lies in the single-digit nanomolar range.

B9 showed a Kd of 2.2 nM. This Kd is about 1.6-fold higher than that of the molecule before.

Turning to B10, the Kd worked out at 2 nM.

In turn, B11 gave an equilibrium dissociation constant (Kd) of 1.5 nM.

In the case of B12, the Kd worked out at 2.1 nM.

A further assay deals with T2, human EphA4 (binding to human Ephrin A5) (Homo sapiens, UniProt P54764).
T2 construct: made in house; not restated for the human SEAP-His protein
T2 sequence (P54764 20-547): as above
Description: Human EphA4-human ligand binding inhibition ELISA of humanized antibodies (biotinylated Ephrin A5-Fc). To be noted: biotinylated human Ephrin A5-Fc 0.7 nM. As to the method: Each anti-EphA4 monoclonal humanized antibody obtained in Example 16 was evaluated for its inhibitory activity against the binding between human EphA4 and its human ligand according to the following steps. Each well of a 96-well plate (Nunc) was coated with an anti-alkaline phosphatase antibody (Thermo Fisher Scientific). After incubation overnight at 4° C., each well was blocked with 1% BlockAce (DS Pharma Biomedical) at room temperature for 1 hour. After washing with 0.05% Tween 20/PBS (Thermo Fisher Scientific) three times, the human EphA4 extracellular region-SEAP-His protein obtained by the method of Example 2 was added (final concentration: 10 nM) to each well and incubated at room temperature for 1 hour. After washing three times, a ligand and each serially diluted humanized antibody of antibody A (0, 0.003, 0.01, 0.03, 0.1, 0.3, 1, 3, 10, 30, 100, 300, 1000, and 3000 nM) were added to each well. The ligand used was biotinylated human Ephrin A5-Fc chimera (R&D Systems, final concentration: 0.7 nM). After incubation at room temperature for 1 hour and subsequent washing three times, horseradish peroxidase-labeled streptavidin (GE Healthcare) was added thereto and incubated at room temperature for 1 hour. After washing three times, a TMBZ (3,3′,5,5′-tetramethylbenzidine, Sigma-Aldrich) solution was added to each well and incubated at room temperature for 2 minutes. An equal amount of a reaction stopping solution (1N H2SO4, Wako Pure Chemical Industries) was added to each well. The absorbance at 450 nm was read using a microplate reader (PerkinElmer).
For orientation: ELISA stands for enzyme-linked immunosorbent assay.
Turning to B1, the IC50 is 2.4 nM.

The molecule B2 yielded a concentration for half-maximal inhibition (IC50) of 3 nM.

Molecule B3 came in with an IC50 of 2 nM.

Consider B4, for which the IC50 came to 5.3 nM.

As to B5, the 50% inhibitory concentration (IC50) came out at 2.9 nM.

Turning to B6, the IC50 amounted to 3.7 nM.

In turn, B7 came in with an IC50 of 3.3 nM.

B8 showed a half-inhibitory concentration (IC50) of 2.4 nM. This IC50 and that of the molecule before are within 1.5-fold of each other.

As for B9, the IC50 is 2.5 nM.

B10 registered a half-inhibitory concentration (IC50) of 2 nM.

Consider B11, for which the IC50 was found to be 3.7 nM.

On to B12, for which the half-inhibitory concentration (IC50) was 2.3 nM.
